The NTF2 design screens of Basanta et al. (2020)

Test: protease stability score; higher = more stable; yeast display proteolysis, trypsin and chymotrypsin;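 note: log10 excess protease needed over predicted unfolded state with 0 meaning unfolded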

First: DEEEDKKVKHLITNIREGNSDDFIKMMDPNARLVYGDQRVKGTSQAREFVHSLHEQARIDLEVKHITAHNGRIDVTVKMELEVNGQPYRFSVNVIVHIRNGKVQEVVFQFDPRDEQRNRK
Second: DEEEDNELAKRAAKAMSTNDEDQVENLVDKDVRLEVGDKTYTGDEQVRSAIQEFRRRADHVKVNKLKVEDGQANLRFTVNWNGVELDMVIHVKATNGKIKTVTIKVRDPEQERRFKS
The protease stability score of the first is higher: 1.24 for the first, 0.024 for the second.

Going from “DEEEDQRVAVDALKVIWRGDSDEAQKLFDPNARFRVGDTVYHGRENVKTALRRFRERADHIRVDHIETQGEHAVAKATVHSNGRTRRLRVHATVHNGRAKEAEVRDS” to “DEEEEARKFVKTAQDKARQGNEDQLQNMADKDARVEVGDKVIHGRNEAVKTRREENKRYDRVHNDVQHITLRPGQITIRMRVHVEHNGQRRHREFVFVMHNNNGEWHVEFVEVK”, the protease stability score falls from 0.012 to -0.045.

Going from “DEEEEHKFEDQVRTNDPDKQRKQLDKDVHVEYGDRTYHGRDAVDKWYKKMKKQVDHVHYHDIRIRNGHATLQNEANVNGRNVRMHVDIEVHNGRLKRMTINFRDEEDTKLFDRLVR” to “DEEEEKQLEDIWKENDWQKWANDADPNVRVNIGDETLHGREDLQRWAQLVRKRYDHVKIESVRFHNGRADVEVNVVVDGEQFRYKLTIQLHNGRVKHMKIQATDEQVKTLLDQMRS”, the protease stability score rises from 0.048 to 1.59.

Compared with “DEEEEKRMTKILEHNDFHKLADNADPNVQINIGDKHIHGRDQAQTFFKQMQKAADHWSIRTMNVRNGHIVVDLVMNVNGQNIRFNLRIERRNGHIKSASVQFTDPDQKRQFDENRS”, “DEEEELRRAVKAIKQYMTGNEQEVSKMADPNVKIQVGEKRIHGREQLRQEVKRLHDTVDHIEVLSITHTGNSAQVDARVEVDGRVQRFVLRVVMHNGRITSIVVEVTDEDRFKNMVK” is higher in protease stability score: 0.599 for the first, 1.2 for the second.

Going from “DEEEFKKHAEQVIRILEHGDPDQMKKNADPNAKIEVGDRTYHGHDRMREFVKRLRDRVDHMSVETWSAHNGRIHIHFRVDINGKDVRVVMQLTVDNGKIKRLRVKSG” to “DEEEHAKEFVKRLDKVNKKNDEESFEDLADENATFRYGDKTYRGREDMRKLVQDLRKRADHADVKLTRLELHNGQVRAEIDMRFRHDGRTHKDVFDAQLKVTNGTVKLTNLNQS”, the protease stability score falls from 0.914 to -0.059.

Going from “DEEEHAKQFLDKMHRAFENNNKDEVRKLADENARFEYGDKTYHGDEEFAKWMREIRERVDRVEMDLRSIEREGEKLNIRFEVKYKHNGNSDTQRWVFVIKHHNGDYVIEKLREQ” to “DEEEHFRKWVHEFIKILETGDPDQAKKMMDPNVRETVGDKSLHGHDQMVREIEKRRESIDHVNFDIKDYRIQGNHFVLDLKVNEVHNGKEITRRLEVDASTQGDKLYVNEIRLS”, the protease stability score falls from 1.22 to -0.146.

First: DEEEIATENAQRFINAVNKNNPDEFVKNMDEDVRIEYGDKVVHGRSQAKHLANEMVDKVDHLTARITDFKVHNGEVDVNVRITFRHNGRNDTHHVRLHLQVHNGRLHIQSMKWS
Second: DEEEIEDVARKLNTGNKDDMRELADKDVKAQVGDKEVHGRENLVRIMKRLKDQADHIKVDEVHVQGNRIQVRFQMNINGTTFDVSFVAKVSNGHIKYFSLRARDPRLDEKILRILK
The protease stability score of the first is lower: -0.412 for the first, 0.493 for the second.

Going from “DEEEIHTMLEVLKQNDEQTLQDLFDENAKISVGEFRFHGRDEAIEFAREFNKAVDHVHYKRVDVQGNRARVKMQLNVNGKNIDVVVKVEIHNGRIKSLRIDVRDEQLRRDLEEAFR” to “DEEEIRHINRKLLKALQEGNEHEVAKLADKDASFDIGDKTYNGRHQVRNMIRKIRSQVDHMTVERMSISNGRIFVFIVFEINGRTRRTNQVVEVKNGRIKEVHVKET”, the protease stability score falls from 1.71 to 0.145.

Going from “DEEEIRMILDVIRARESGDEDRLHELLDKDVEFQVGEKTYHGREEIVRQVLQERREMQYSVNVKTVRDHNGVADIKAEFHFLYNGRPMNIDVEIHAHAHNGSVVNFRVRVDPKQMDDFKT” to “DEEEKAEHVADEVRHALKRGDEDRLMNLMDENVRVEVGDKTIHGREEVRKELHRISKDFDHVDAKVKSIKVTNGNVIIIMDVKQNVNGRTRRFEVSMILDVKGDKARIQHIKND”, the protease stability score falls from 1.26 to 1.11.

Compared with “DEEEKAREQQEEFQKALEKNDKEKIKNYFDPNVRVHVGDKTLHGREDVAERLIQLAQHVDHIQVEIKKLDVRNGRIDVDVVVVFERNGQRSTQRFKITMKINNGRAYVQHMKQS”, “DEEEKAREYNKTIRQVWHDNNEEDMMRLADENARLEYGDKQLHGRENFRKRQHDIHRRVDKVDVDVKRVEVHNGKFKAQFTFTLVSNGENNKRLYILVAQLHGDKFRIKQIVEQ” is lower in protease stability score: 0.109 for the first, 0.099 for the second.

First: DEEEKKKKAEHAAKAFVTGDEERMNQLASPDVTATVGDQRVHGRDDMNKLLQEFKRQADHVELKSFRNDENHVTIHVRVNHNGKMDKFVVNIRMHNGQVKIIHQTSS
Second: DEEEKKRQQEEIERLLHTGDHDRFSELMDKDVKMDVGEDRVHGRENVAKHLADEMKRIDHVNVQSVDVKGEKFDFSAQFRVNGQTVQRVIIMVQKNGKWKELSITVTDDDQLKRVES
The protease stability score of the first is lower: -0.289 for the first, 0.092 for the second.

Going from “DEEELDNAKEMVKALLHGNPDRAKQLADPNAHYHVGDKKVHGNDNWAKLVRKERQELRVKIDRVDIKSKGNKVSVDIDVVHDHNGQPQKRNYRLHVEIHNGKVRNVKIQHDG” to “DEEELDRLQKQLERNDWETFVRQADENVKVKYGDRSLHGHEDFNKYMKRLHDQVDHYQLNRVTNHGDHLQARVVFRFNGQNIDMTFEVRVHNGRIQEVVFHFTDPRTHKQFKENMD”, the protease stability score rises from 0.066 to 1.42.

Going from “DEEELEKINQLIKTNDFQQLRQDADPNVQVEYGDKSYHGRENLTKNMREFEKMVDHVQLKDYRVKGEKLEADMVATVNGREIRFTLSMNVHNGKIKQISLKYRNEDQKRRMEEALN” to “DEEELEKMAEKVIKMLRSGDPRQAVRMMDENAHVEYGDKTYHGREDAERAVKQWTDHFDKVRVVHVDVHNGTVNVDMEINHNGRVERYVVRVEVHNGRVKHLVVKSS”, the protease stability score rises from 0.922 to 1.2.

First: DEEELERQAQELVDAWQTNDESKIRHLVDENARVQVGDTTWKGREKAEEQVQEFKKQVDRLRVISVRVHGENIVVHVEIVHNGKHFSLTIVIEMHNGKVKHISVDPKAVEIATK
Second: DEEELETMRRILKENDWETIAHNADKDVKMTVGDKTIHGRENVRHWVKKWQKNVDHIDVESIDVQGDRIDMVARNVVNGKTMKLVFHINVHNGHVQEIELRARNEKDEELLRKAEG
The protease stability score of the first is lower: 0.497 for the first, 1.3 for the second.

First: DEEELKDVLKKFSKNDEDFFKDLADKDARAVYGDKEVHGREEMSDLWRILKEQVDHMHINHMKLQGDRIVVDFTMTINGQEYVNVQELKFQNGKLQEVVVKVTDEEQMKRLLKIEK
Second: DEEELKDWLRNAREIWETGNPDQMEELADPDASIQVGDRTYHGSDEYKKWVEDMHRHADHIEVKEVSIRGDKVHIQVVINVNGRNFTFEFELRVRNGRVKQFNFDPDRMEEIKK
The protease stability score of the first is lower: 0.298 for the first, 0.574 for the second.

Going from “DEEELKHINRELVEVAKTGNPDEWRKLMRKDVTMHVGDKTYHGREKVREHAKTLRDRIDHINVRSVSATGDKVVLNFEAKVNGQTRTYQFQARVHNGRIVSAHINER” to “DEEELKHLMKVQTTGDPDKYEEMADKDVKAKIGDETYHGRETVLTQLRRMLTQIDHLEVKNVDTQGDKVNLRAVANYNGQELDVIYVLVVHNGRVDNMEIDARDEKVEDQLRQAMS”, the protease stability score falls from 0.006 to -0.348.

First: DEEELKHVAELILKGDEKELSKMMDEDVRVHIGNKEYHGREQAEEAVKTLVDRADHFQVHDMRTSEGQIHVQLVVNINGENVNMYFVAEVHNGRIKEISARARDPREEEKFNKLLG
Second: DEEELKKHAHNLMRAMQTGDPDKVEEYFDPDAEYTVGDQTYRGREDMREWFEEVRRQVDHNQINDVRNSENHVNVDFVLNHNGTNHRVKFKAEIHNGRAKRASITTG
The protease stability score of the first is higher: 1.68 for the first, -0.271 for the second.

First: DEEELKTAETNIRTGNFDDLSKQADENVNVQVGEKTIQGREEFNKVAHHLQKDVDHFEVKHVHNQGDQVNAEAVFVVDGKDLSFNMQMKMHNGRVKSVVFRATDETILRTYKEMLR
Second: DEEELKTIIRDMQSNDEERLANLFDEDAKVDVGDDVLHGREDVTKFFRKVNKRIDHFEIKTYDVRGEEVEVTVEAVVNGQRIKFVWVLTIKNGKAKSAKLSVTDKKQKRILEKNMD
The protease stability score of the first is lower: -0.152 for the first, 1.12 for the second.
